This note sets out measurements from the DeepSol protein solubility set.

This series can be described thus: soluble on expression in E. coli; label from the status in PepcDB or PDB records.
With “MSLTDIKMIALGGVREYGKNFYLVEINDSMFILDAGLKYPENEQLGVDLVIPNLDYVIENKGKVQGIFLSHGHADAIGALPYLLAEVSAPVFGSELTIELAKLFVKSNNSTKKFNNFHVVDSDTEIEFKDGLVSFFRTTHSIPESMGIVIGTDKGNIVYTGDFKFDQAAREGYQTDLLRLAEIGKEGVLALLSDSVNATSNDQIASESEVGEEMDSVISDADGRVIVAAVASNLVRIQQVFDSATAHGRRVVLTGTDAENIVRTALRLEKLMITDERLLIKPKDMSKFEDHELIILEAGRMGEPINSLQKMAAGRHRYVQIKEGDLVYIVTTPSTAKEAMVARVENLIYKAGGSVKLITQNLRVSGHANGRDLQLLMNLLKPQYLFPVQGEYRDLAAHAKLAEEVGIFPENIHILKRGDIMVLNDEGFLHEGGVPASDVMIDGNAIGDVGNIVLRDRKVLSEDGIFIVAITVSKKEKRIISKAKVNTRGFVYVKKSHDILRESAELVNTTVGNYLKKDTFDWGELKGNVRDDLSKFLFEQTKRRPAILPVVMEVREGHHHHHH”, the “soluble on expression in E. coli” value is “soluble”.

“MYSMLKRVITEKDLLRQIRLLEQLLNVPQLTAKRLAAQIQTTERTVFSDLQYIRSQLPADWSIETDSSGIRLRNQGNAQTNELWSLFLPQSISIQLLKELLFTKELVTTSFLSTSGVSYETLKRHIKKMNQALRDFHLTIQLTTMTIQLIGAESNIRIFYHRLLVPFTHNNYFFDDYSIHEEHYFQFLKQVYSSELTVETEEIFGACWFFINTIRNKANCRVSQFSFDSKDVLFQLYQPSLAKLYASEGIYLQGEESFFAFFCFLESWNYDNVYGETLASALHTHYSQLRKSLQQFVTNLSTEEARPDLIQTNLLDNLLLLFIKYTESPTLSEQFQLEYQELMTEQAAEDLALSKSNQELLEILSRYTTIEEPTYFLSLASLLEKQAIYSIQAQTMTAYFLFQGEPAWKAFLQQELAAYLGTRVKLQAIEYVELSQLTLNEADIIISNFPLDHLDLPVFYLSLIPTKNELRRLAELTLHSYF”: the “soluble on expression in E. coli” value is “soluble”.

Turning to “MSIDRTSPLKPVSTVQTRETSDTPVQKTRQEKTSAATSASVTLSDAQAKLMQPGVSDINMERVEALKTAIRNGELKMDTGKIADSLIREAQSYLQSK”, the “soluble on expression in E. coli” value was “not soluble”.

With “MSFYSAHQLALALEGLQRALDEIGIYSDILEDALLIACNVPVAEKTSILNDFQRADTINYGGLAAAIRANLAPDVCERRITEFQKKYAHGTDDQRLELLSDESVWRLEAYEAFADAEPLSTLEKIRLGVIGGPIDSIDPNWPLRKIAPERFLNDRWSRAVHDPRRIRRKIIGHRLPYRTKAEPDVPYGIPKRARLAARENSGPVRAPPLLGGAHPGQFRARGPAGVGVVSRHTRQFGAARGVLRGPTGNRVVPLFPVQIRARPPAPSQTIIRVQETERVKLEPTDNSYEEQKPPLLEN”, the “soluble on expression in E. coli” value is listed as “not soluble”.

Turning to “MSLDRVEEQRITIPDFQKLVEAQTGSEISMDDFYPASSVRPISDFVAAIEGEPQVTFTCHQHCGTATYIFLEDDKIIPITRFIDVDRFFEVLEKGKDEIEEGGIAAKARVIARSAIELPKTLDKSEAPESVDIKRILTSIFKERSYTALGEFHYNTLLISCMHFMDPWNFDIDRVRRCVIHYALPDGRIVPFCTMNSIHRADVERHFAKPLNESKEGHHHHHH”, the “soluble on expression in E. coli” value is “not soluble”.

As for “MSANVDLNQRPDYDAVLQDIADYVLDYRIDSTEALDTARNCLMDTLGCGLLALRFPECTKHLGPLVEGTLVPHGARVPGTSFRLDPVKAAWDIGCIVRWLDYNDTWLAAEWGHPSDNLGGILAVADHLSQKRLANGEAPLSMRQVLEAMIMAHEIQGVIALENSFNRVGLDHVLLVKVASTAVCAKLMGADREQLLAALSHAFVDGQALRTYRHAPNAGSRKSWAAGDATSRGVRLADIALRGEMGIPGVLSAPQWGFYDVLFSHTSKDLATKPEDKRRFSFPQGYGSYVMENVLFKISFPAEFHAQTAAEAAVRLHPLVKDRLQRISRIVITTHESAIRIISKVGPLANPADRDHCLQYMTAVPLIFGDLVAEHYEDAFHAAHPLIDRLREKMEIVEEPRYSREYLEADKRSIANAVEVFFDDGSSTGQVAVEYPLGHRRRRAEGIPLLQEKFKANLATRFPPQRCQRIFDLCSHQASLEATPVNRFMDLLAI”, the “soluble on expression in E. coli” value is recorded as “not soluble”.

For the sequence “MGSDKIHHHHHHMKIALIATEKLPVPSVRGGAIQIYLEAVAPLIAKKHEVTVFSIKDPNLADREKVDGVHYVHLDEDRYEEAVGAELKKSRFDLVHVCNRPSWVPKLKKQAPDAVFILSVHNEMFAYDKISQAEGEICIDSVAQIVTVSDYIGQTITSRFPSARSKTKTVYSGVDLKTYHPRWTNEGQRAREEMRSELGLHGKKIVLFVGRLSKVKGPHILLQALPDIIEEHPDVMMVFIGSKWFGDNELNNYVKHLHTLGAMQKDHVTFIQFVKPKDIPRLYTMSDVFVCSSQWQEPLARVHYEAMAAGLPIITSNRGGNPEVIEEGKNGYIIHDFENPKQYAERINDLLSSSEKRERLGKYSRREAESNFGWQRVAENLLSVYEKNR”, the “soluble on expression in E. coli” value is given as “not soluble”.

Take “SHMSLTPDQIVAALQERGWQAEIVTEFSLLNEMVDVDPQGILKCVDGRGSDNTQFCGPKMPGGIYAIAHNRGVTTLEGLKQITKEVASKGHVPSVHGDHSSDMLGCGFFKLWVTGRFDDMGYPRPQFDADQGAKAVENAGGVIEMHHGSHAEKVVYINLVENKTLEPDEDDQRFIVDGWAAGKFGLDVPKFLIAAAATVEMLGGPKKAKIVIP”: the “soluble on expression in E. coli” value was “soluble”.

For “MGSDKIHHHHHHMSNSLKASTTGLGIVDKARKRLGWTKTSTACWWQDAHTSRATLRRFWQGDRIQQEIFIAICQAVGINDWQNIAEIPNADFEETSTQYLDWDDAPDLESFYGRNQELAQLEEWILGDRCKLIIITGIAGIGKTALALALADLLQLKFDGLIWKTLHSVPSLVPLLDGLLHTFKQTPVDDIPSDTAKLIHHLQQRRCLLILDGLDESEKHYHQFIQQLSRAHHQSCIILTSREQPNIIESNTKTVRSLTLTGLPKDDAVKLLQARGFTGKEIGLSPLIQLYRGNPLALKLVTPLIQSVFGGNIAAFLSQNTIVIGDRLRAILKQQFEQLSDLEQNILYWLAIWQQPISFSRLQTHLLISLDPATVLDAIVSLERRSLLEKWICSDAPAFTLQPLVMKIATDELVERATQEIIQVMQSRDIADFKVLRTHWLLRPGSDDIVGDRILHQLQEKLWQIYGANLVQNLQQILLLLNDKSPLTIGYIACNITTIITKGV”, the “soluble on expression in E. coli” value is on record as “not soluble”.

As to “MGSDKIHHHHHHMNILVTGANGFVGQTLCPALERAGLRAVRAVRISTRYEEISVGEVDGETSWSRVFDEGIDGVVHLAAKVPLAEKEKEAADSYHRVNTLGTVRLARECAARGIRRFVFISTVKVLGEECDKPFQADDSAVPSDAYAISKWEAEQSLRQISAETGMEVVILRPPLVYGPGVGGNFLRLLQMVDRRIPLPLGAIHNRRSLIYLGNLVDIIRLCLTHPDAASKTFMVSDGEDVSTPGLIRRIGSVLGHGSFLLPVPAAWMRRVGDLLGKRSAIDRLTGSLSVDSMPVQKELGWLPPYGMQAGLALTVQWYRQHKPETKS”, the “soluble on expression in E. coli” value was “not soluble”.

For “MPLTQTQRLINTYGASLKNGTISNEELIILLDPNTFTKSEGYVDPNAPVSDSNHSKMDAIKDFVLTIGPTLDSEILHQLTSRMIELSPPGDRNTFMRGSSLEKAFLAFEMAHYPTKAEEHFNSTRVRTEFPGENDIDNLKAVILNPIIAFFQSPPGTDEKLEKLIKLCTDYKEHLKPSLTDDANNLVNKKHAIVTNMLAALTDSTAPNNATKIKNMEQILTEENKATLKDRRDSFSGARFLESILHILSLGIYSKLTKGTFKFWKSHGEALSDNIEEVSKQQPGMK”, the “soluble on expression in E. coli” value was “not soluble”.

On to “MSLSNLPADSFRVGVSEDRNRRCRRTMEDAHSFVYDFAGVKGQGYFAVFDGHAGKHAAEWCGQNFHEYLLDGLLIEPDTPVPDLMNKTFHLVDKRLSHLAHAAGTSSGCTAVTAFLRVEEMDDNDSFRKGFTNPGLQPRGLWEGKGEDELESQTSLQPSSRRSSMGGGTGGQMGGASAPGVNGRTGSLARRLSSKKIRDFVKGLTGGMEKNFDEAITEDEGVISAADGTRVEAIEPKSEKGVRRVLYTANVGDARAVLCRGGKAVRLTYDHKGSDAQEAKRITDAGGFVMNNRVNGVLAVTRSLGDASMKEFVVGAPYTTETTLDEQDEFLIVACDGLWDVCSDQEAVEIVHLVTDPQEASKRLLDHAMSNFSTDNLSVMVVRFNHEGHHHHHH”, for which the “soluble on expression in E. coli” value is “soluble”.

Take “MSLKPQVYHVDAFTSQPFRGNSAGVVFPADNLSEAQMQLIARELGHSETAFLLHSDDSDVRIRYFTPTVEVPICGHATVAAHYVRAKVLGLGNCTIWQTSLAGKHRVTIEKHNDDYRISLEQGTPGFEPPLEGETRAAIINALHLTEDDILPGLPIQVATTGHSKVMIPLKPEVDIDALSPDLNALTAISKKIGCNGFFPFQIRPGKNETDGRMFSPAIGIVEDPVTGNANGPMGAWLVHHNVLPHDGNVLRVKGHQGRALGRDGMIEVTVTIRDNQPEKVTISGTAVILFHAEWAIELEGGSHHHHHH”: the “soluble on expression in E. coli” value is reported as “soluble”.

“MKGNALCTGEPVMTIETRGGGSEDIAVLPLDPTGNITRLFIRERCNDSSDPECKTGQWRLGSVDISRENTPASTRYAWRPGNNASEDDFEPLGMSLVPGNTPGEGTLFVIDIARPQSVRIWQLDISGGEITKATLATPADTQTGARLTAANSLQAVRNDDSRSFHLTITRFDEYGLLPFRPTPWPALVRINNGVIQPPPAQDFRNANGIIRPCAGCDLVIASYWERRLRFVSKENGEIGEYASAELPIRPDNLRLDGERILIAGQRRVDLTALNLLVSPHIPSPSGVYAIDTRSLGPDTVPTLLWEGGWKHGHSVATAVALPGNRLAIGQINTPGILIADCSPLEHHHHHH”: the “soluble on expression in E. coli” value is reported as “not soluble”.

Consider “MAKVVIPNGAEGEEAVYREQVIREYSGNPFIEALPPIYAPEEVVEKLAVYPPYSEEERNLDAHYRIHLTQKLFHCFQPLPQHLDLESRISRVIRQGYLPRNPVSKEYVISLKDGYRAVQNCDINANQQFRSTACGFTIIGVSGMGKSVSINRVLSMYPQVIVHSRYKGQGFSFYQLVWLKLDTPFDGSVKGLCIDFFNKVDQLMGTDFYKKVANSRKSVDYMLTLMCQVVRNTGLGLLIIDEVQHLCGARGLGDERMLNFFVTLVNTAGVPIILIATPKAMSILQSEFRQARRGSGQGDMVWERLQYDENFEILLDSLWQYQWTRKESILTKSMRELLYEESQGIIDIICKIIVMAQTIAISTGKEQVDEKLIQQVAREHLQLVRPMILALKSGNIREIAKYSDICTAEIDYGKLVNQEKLPVEMRMRIRAIKEQKEKREKENKTSKMEQALYKLAELGIDVAKARKAVEAVFEAEGHNIDEGQLVIKAIQVLSGNTTEKKSKKVKTTPKSENDLRYIVEEGRNQGKSAYDALKDKGYIKGEKNDTLFKAV”, for which the “soluble on expression in E. coli” value is “not soluble”.

For “MMWIPYNQGFHAGPKCLTVVFIYLLNMKVLRHIYRFLMELYGPQGWWPLLDRDTMTLRYHPGDYTPPSDDGDVFEVITGSILTQNTSWDSAASALRNLAAMDALKPHRILSLDDAELEAAIRCAGFYRQKVSYLREMAGFFISLEGSTPSRKELLKVRGVGPETADSVLLYAYRKPEFVVDAYTRRILTHLGLIAGDESYHRIKELFERSLEPDFRVFQEYHALIVRHGKSYYRGRVHGDGDPLTEKLEHHHHHH”, the “soluble on expression in E. coli” value is recorded as “not soluble”.
